According to US20050123972A1 (Bristol-Myers Squibb, published 2005):

T1: wild-type human CCR3 (endogenous, on native human eosinophils) (human, UniProt P51677 1-355)
T1 construct: This is the endogenous receptor on human eosinophils; also called eotaxin receptor; wild-type intact receptor in eosinophils
T1 sequence: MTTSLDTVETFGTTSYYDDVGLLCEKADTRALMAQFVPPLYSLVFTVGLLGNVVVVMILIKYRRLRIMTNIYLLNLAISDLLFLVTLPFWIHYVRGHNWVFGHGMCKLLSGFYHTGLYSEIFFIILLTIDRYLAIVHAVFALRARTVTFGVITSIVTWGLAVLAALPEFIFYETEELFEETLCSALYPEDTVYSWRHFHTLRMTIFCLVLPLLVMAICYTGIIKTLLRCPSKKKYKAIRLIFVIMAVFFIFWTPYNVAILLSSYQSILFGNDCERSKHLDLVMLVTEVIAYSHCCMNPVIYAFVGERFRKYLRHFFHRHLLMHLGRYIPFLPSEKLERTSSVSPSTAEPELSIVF

B1: human eotaxin (125I-labeled human eotaxin, Perkin Elmer #NEX-314; unlabeled recombinant human eotaxin, R&D Systems #320-EO/CF) (ligand)
chain: not shown
modifications: 125I label (position not given) on the tracer form
notes: also called labeled (hot) eotaxin
B2: chimeric CCR3/2 receptor (human CCR3 residues 1-310 joined to the cytoplasmic tail of human CCR2 isoform B), expressed on CHO-K1 cells (receptor)
chain: MTTSLDTVETFGTTSYYDDVGLLCEKADTRALMAQFVPPLYSLVFTVGLLGNVVVVMILIKYRRLRIMTNIYLLNLAISDLLFLVTLPFWIHYVRGHNWVFGHGMCKLLSGFYHTGLYSEIFFIILLTIDRYLAIVHAVFALRARTVTFGVITSIVTWGLAVLAALPEFIFYETEELFEETLCSALYPEDTVYSWRHFHTLRMTIFCLVLPLLVMAICYTGIIKTLLRCPSKKKYKAIRLIFVIMAVFFIFWTPYNVAILLSSYQSILFGNDCERSKHLDLVMLVTEVIAYSHCCMNPVIYAFVGERFRKYLSVFFRKHITKRFCKQCPVFYRETVDGVTSTNTPSTGEQEVSAGL
notes: Expressed from the pFLAG-CMV-3 vector in CHO-K1 cells; also called CCR3/2 chimera; CHO CCR3/2 clone 5.5

What was measured:
[1] = molecular target: T1, wild-type human CCR3 (endogenous, on …); assay: 125I-eotaxin binding to cells, filter plate assay
Procedure: (§1) Invest. 97:604). In order to compare the ability of cells expressing chimeric human CCR3/2 molecules to that of cells expressing endogenous human CCR3 to bind eotaxin, a binding assay was performed. Depending upon the questions being asked, the cells in question were either human or mouse eosinophils, CHO-K1 cells expressing recombinant CCR3 or CCR3/2, parental CHO-K1 cells or other cell types. All assay steps were conducted at room temperature. Multiscreen assay plates (#MABVN1250, Millipore Inc., Marlborough, Mass.) were incubated with 100 μl/well of blocking solution (7.5 μg/ml protamine in PBS) to block non-specific binding. After 20 minutes, the blocking solution was removed and replaced with 100 μl of binding buffer, (RPMI 1640 (Life Technologies, Grand Island, N.Y.) containing 0.1% bovine serum albumin and 20 mM HEPES buffer) and incubated for at least an additional 10 minutes.
(§2) When ready to use plate(s), the following procedure was employed. […]
(§3) Binding data were analyzed using Microsoft EXCEL and then graphed using […] […]

[2] = molecular target: B1; assay: 125I-eotaxin binding to CHO CCR3/2 clone 5.5 cells, filter plate assay (FIG. 1)
Procedure: as §1, §2, §3

Binder | binding result [1] | binding result [2]
B1 | binds | 
B2 |  | binds
